From the supplement of paper PMC12338614
± gives the uncertainty stated by the source.

B1: library; numbered along this chain (parent)
chain: MEVVDPQQLGMFTEGELMSVGMDTFIHRIDSTEVIYQPRRKRAKLIGKYLMGDLLGEGSYGKVKEVLDSETLCRRAVKILKKKKLRRIPNGEANVKKEIQLLRRLRHKNVIQLVDVLYNEEKQKMYMVMEYCVCGMQEMLDSVPEKRFPVCQAHGYFCQLIDGLEYLHSQGIVHKDIKPGNLLLTTGGTLKISDLGVAEALHPFAADDTCRTSQGSPAFQPPEIANGLDTFSGFKVDIWSAGVTLYNITTGLYPFEGDNIYKLFENIGKGSYAIPGDCGPPLSDLLKGMLEYEPAKRFSIRQIRQHSWFRKKHPPAEAPVPIPPSPDTKDRWRSMTVVPYLEDLHGADEDEDLFDIEDDIIYTQDFTVPGQVPEEEASHNGQRRGLPKAVCMNGTEAAQLSTKSRAEGRAPNPARKACSASSKIRRLSACKQQ

Variants of: B1
Experiment: STK11 functional score (HeLa growth suppression), rescaled enrichment; synonymous median = 1, nonsense median = 0 (normalised score)
Conditions: with HeLa; variant type: missense
Outline: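 In HeLa, Bxb1 integrated POPCode codon-randomised libraries of codon-optimised STK11 at an AAVS1 landing pad; three regions were each transfected three times. Integrants, marked as BFP-negative and mCherry-positive, were FACS-sorted 4–5 days after electroporation and expanded for about two weeks before tiled gDNA amplicons were sequenced on NextSeq (~2 million reads per tile). Each functional score is a post/pre-selection log ratio corrected to wild type, rescaled to the synonymous and nonsense medians, and merged across codons and replicate transfections, with error estimated by bootstrapping.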

| Variant | STK11 functional score |
| --- | --- |
| MEVVDPQQLGMFTEGELMSVGMDTFIHRIDSTEVIYQPRRKRAKLIGKYLMGDLLGEGSYGKVKEVLDSETLCRRAVKILKKKKLRRIPNGEANVKKEIQLLRRLRHKNVIQLVDVLYNEEKQKMYMVMEYCVCGMQEMLDSVPEKRFPVCQAHGYFCQLIDGLEYLHSQGIVHKDIKPGNLLLTTGGTLKISDLGVAEALHPFAADDTCRTSQGSPAFQPPEIANGLDTFSGFKVDIWSAGVTLYNITTGLYPFEGDNIYKGFENIGKGSYAIPGDCGPPLSDLLKGMLEYEPAKRFSIRQIRQHSWFRKKHPPAEAPVPIPPSPDTKDRWRSMTVVPYLEDLHGADEDEDLFDIEDDIIYTQDFTVPGQVPEEEASHNGQRRGLPKAVCMNGTEAAQLSTKSRAEGRAPNPARKACSASSKIRRLSACKQQ [L263G] | 0.983 ± 0.18 |
| MEVVDPQQLGMFTEGELMSVGMDTFIHRIDSTEVIYQPRRKRAKLIGKVLMGDLLGEGSYGKVKEVLDSETLCRRAVKILKKKKLRRIPNGEANVKKEIQLLRRLRHKNVIQLVDVLYNEEKQKMYMVMEYCVCGMQEMLDSVPEKRFPVCQAHGYFCQLIDGLEYLHSQGIVHKDIKPGNLLLTTGGTLKISDLGVAEALHPFAADDTCRTSQGSPAFQPPEIANGLDTFSGFKVDIWSAGVTLYNITTGLYPFEGDNIYKLFENIGKGSYAIPGDCGPPLSDLLKGMLEYEPAKRFSIRQIRQHSWFRKKHPPAEAPVPIPPSPDTKDRWRSMTVVPYLEDLHGADEDEDLFDIEDDIIYTQDFTVPGQVPEEEASHNGQRRGLPKAVCMNGTEAAQLSTKSRAEGRAPNPARKACSASSKIRRLSACKQQ [Y49V] | 0.956 ± 0.099 |
| MEVVDPQQLGMFTEGELMSVGMDTFIHRIDSTEVIYQPRRKRAKLIGKYLMGDLLGEGSYGKVKEVLDSETLCRRAVKILKKKKLRRIPNGEANVKKEIQLLRRLRHKNVIQLVDVLYNEEKQKMYMVMEYCVCGMQEMLDSVPEKRFPVCQAHGYFCQLIDGLEYLHSQGIVHKDIKPGNLLLTTGGTLKISDLGVAEALHPFAADDTCRTSQGSPAFQPPEIANGLDTFSGFKVDIWSAGVTLYNITTGLYPFEGDNIYKLFENIGKGSYAIPGDCGPPLSDLLKGMLEYEPAKRFSIRQIRQHSWFRKKHPPAEAPVPIPPSPDTKDRWRSMTVVPYLEDLHGADEDEDLFDIEDDIIYTQDFTVPGQVPEEEASHNGQRRGLPKAVCMNGTEAAQLSTKSRYEGRAPNPARKACSASSKIRRLSACKQQ [A406Y] | 1.07 ± 0.58 |
| MEVVDPQQLGMFTEGELMSVGMDTFIHRIDSTEVIYQPRRKRAKLIGKYLMGDLLGEGSYGKVKEVLDSETLCRRAVKILKKKKLRRIPNGEANVKKEIQLLRRLRHKNVIQLVDVLYNEEKQKMYMVMEYCVCGMQEMLDSVPEKRFPVCQAHGYFCQLIDGLEYLHSQGIVHKDIKPGNLLLTTGGTLKISDLGVAEALHPFASDDTCRTSQGSPAFQPPEIANGLDTFSGFKVDIWSAGVTLYNITTGLYPFEGDNIYKLFENIGKGSYAIPGDCGPPLSDLLKGMLEYEPAKRFSIRQIRQHSWFRKKHPPAEAPVPIPPSPDTKDRWRSMTVVPYLEDLHGADEDEDLFDIEDDIIYTQDFTVPGQVPEEEASHNGQRRGLPKAVCMNGTEAAQLSTKSRAEGRAPNPARKACSASSKIRRLSACKQQ [A206S] | 1.17 ± 0.093 |
| MEVVDPQQLGMFTEGELMSVGMDTFIHRIDSTEVIYQPRRKRAKLIGKYLMGDLLGEGSYGKVKEVLDSETLCRRAVKILKKKKLRRIPNGEANVKKEIQLLRRLRHKNVIQLVDVLYNEEKQKMYMVMEYCVCGMQEMLDSVPEKRFPVCQAHGYFCQLIDGLEYLHSQGIVHKDIKPGNLLLTTGGTLKISDLGVAEALHPFAADDTCRTSQGSPAFQPPEIANGLDTFSGFKVDIWSAGVTLYNITTGLYPFEGDNIYKLFENIGKGSYAIPGDLGPPLSDLLKGMLEYEPAKRFSIRQIRQHSWFRKKHPPAEAPVPIPPSPDTKDRWRSMTVVPYLEDLHGADEDEDLFDIEDDIIYTQDFTVPGQVPEEEASHNGQRRGLPKAVCMNGTEAAQLSTKSRAEGRAPNPARKACSASSKIRRLSACKQQ [C278L] | 1.08 ± 0.46 |
| MEVVDPQQLGMFTEGELMSVGMDTFIHRIDSTEVIYQPRRKRAKLIGKYLMGDLLGEGSYGKVKEVLDSETLCRRAVKILKKKKLRRIPNGEANVKKEIQLLRRLRHKNVIQLVDVLYNEEKQKMYMVMEYCVCGMQEMLDSVPEKRFPVCQAHGYFCQLIDGLEYLHSQGIVHKDIKPGNLLLTTGGTLKISDLGVAEALHPFAADDTCRTSQMSPAFQPPEIANGLDTFSGFKVDIWSAGVTLYNITTGLYPFEGDNIYKLFENIGKGSYAIPGDCGPPLSDLLKGMLEYEPAKRFSIRQIRQHSWFRKKHPPAEAPVPIPPSPDTKDRWRSMTVVPYLEDLHGADEDEDLFDIEDDIIYTQDFTVPGQVPEEEASHNGQRRGLPKAVCMNGTEAAQLSTKSRAEGRAPNPARKACSASSKIRRLSACKQQ [G215M] | 0.509 ± 0.12 |
| MEVVDPQQLGMFTEGELMSVGMDTFIHRIDSTEVIYQPRRKRAKLIGKYLMGDLLGEGSYGKVKEVLDSETLCRRAVKILKKKSLRRIPNGEANVKKEIQLLRRLRHKNVIQLVDVLYNEEKQKMYMVMEYCVCGMQEMLDSVPEKRFPVCQAHGYFCQLIDGLEYLHSQGIVHKDIKPGNLLLTTGGTLKISDLGVAEALHPFAADDTCRTSQGSPAFQPPEIANGLDTFSGFKVDIWSAGVTLYNITTGLYPFEGDNIYKLFENIGKGSYAIPGDCGPPLSDLLKGMLEYEPAKRFSIRQIRQHSWFRKKHPPAEAPVPIPPSPDTKDRWRSMTVVPYLEDLHGADEDEDLFDIEDDIIYTQDFTVPGQVPEEEASHNGQRRGLPKAVCMNGTEAAQLSTKSRAEGRAPNPARKACSASSKIRRLSACKQQ [K84S] | 1.71 ± 0.19 |
